Publication PMC9482650, “Quantitative fragmentomics allow affinity mapping of interactomes” (Nature Communications, 2022)

T1: DLG3_1, Q92796
T1 sequence (Q92796 125-227, limits assumed, looked up): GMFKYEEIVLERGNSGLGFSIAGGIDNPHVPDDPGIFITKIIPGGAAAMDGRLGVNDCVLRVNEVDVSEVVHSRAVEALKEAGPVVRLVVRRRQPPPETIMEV

T2: DLG3_2, Q92796
T2 sequence (Q92796 221-321, limits assumed, looked up): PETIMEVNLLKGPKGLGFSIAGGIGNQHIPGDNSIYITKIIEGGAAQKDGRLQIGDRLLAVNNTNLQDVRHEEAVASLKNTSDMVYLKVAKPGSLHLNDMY

T3: GRIP1_7, Q9Y3R0
T3 sequence (Q9Y3R0 999-1096, limits assumed, looked up): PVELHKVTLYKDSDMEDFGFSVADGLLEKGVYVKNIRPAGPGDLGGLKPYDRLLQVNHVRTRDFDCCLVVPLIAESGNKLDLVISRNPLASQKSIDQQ

T4: HTRA3, P83110
T4 sequence (P83110 354-453, limits assumed, looked up): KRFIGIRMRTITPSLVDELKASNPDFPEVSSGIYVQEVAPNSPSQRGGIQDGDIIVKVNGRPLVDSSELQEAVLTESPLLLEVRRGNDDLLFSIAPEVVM

T5: LIN7A, O14910
T5 sequence (O14910 103-200, limits assumed, looked up): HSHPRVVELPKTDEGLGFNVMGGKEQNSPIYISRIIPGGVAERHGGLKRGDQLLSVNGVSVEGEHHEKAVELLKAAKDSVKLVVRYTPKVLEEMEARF

T6: MPDZ_5, O75970
T6 sequence (O75970 695-796, limits assumed, looked up): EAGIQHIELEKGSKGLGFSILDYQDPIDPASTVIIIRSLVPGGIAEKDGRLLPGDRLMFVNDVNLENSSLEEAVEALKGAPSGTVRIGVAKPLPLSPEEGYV

T7: NHERF3_3, Q5T2W1
T7 sequence (Q5T2W1 238-333, limits assumed, looked up): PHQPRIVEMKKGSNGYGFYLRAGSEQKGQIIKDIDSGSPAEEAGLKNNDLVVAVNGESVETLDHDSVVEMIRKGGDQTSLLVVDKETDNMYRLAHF

T8: NHERF3_4, Q5T2W1
T8 sequence (Q5T2W1 373-468, limits assumed, looked up): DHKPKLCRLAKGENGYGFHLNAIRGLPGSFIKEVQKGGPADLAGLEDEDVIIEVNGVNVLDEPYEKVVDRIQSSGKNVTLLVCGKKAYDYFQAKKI

T9: PDZD2_2, O15018
T9 sequence (O15018 329-429, limits assumed, looked up): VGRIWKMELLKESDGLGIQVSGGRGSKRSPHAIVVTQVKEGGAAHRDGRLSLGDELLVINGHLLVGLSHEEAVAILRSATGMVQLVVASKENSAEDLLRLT

T10: RHPN1, Q8TCX5
T10 sequence (Q8TCX5 508-602, limits assumed, looked up): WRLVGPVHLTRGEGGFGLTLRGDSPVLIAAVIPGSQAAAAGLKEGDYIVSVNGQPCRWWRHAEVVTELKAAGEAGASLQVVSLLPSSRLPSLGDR

T11: SNTB1, Q13884
T11 sequence (Q13884 107-205, limits assumed, looked up): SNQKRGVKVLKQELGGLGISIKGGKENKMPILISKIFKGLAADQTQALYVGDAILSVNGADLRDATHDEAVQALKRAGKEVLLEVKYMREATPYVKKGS

B1: CLDN3, O15551 (peptide)
chain: GTGYDRKDYV
B2: KCNV1, Q6PIU1 (peptide)
chain: RSSGGDDFWF
B3: FOXI1, Q12951 (peptide)
chain: VLYPREGTEV
B4: PTPN18, Q99952 (peptide)
chain: RDPPAEWTRV

Legend:
Test in all cases: holdup assay
Parameters in all cases: key: below the threshold = too weak to quantify, mostly under pKd 3.1 to 4
Conditions in all cases: plain residues with an end cap or a label only (N-terminal biotin on a linker: ado-ado)
CASK, O14936 = biological target: CASK, O14936
CASK, O14936, sequence (O14936 487-570): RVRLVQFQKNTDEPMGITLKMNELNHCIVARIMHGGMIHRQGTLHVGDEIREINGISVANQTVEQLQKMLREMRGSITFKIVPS

DLG3_1, Q92796 = biological target: T1, DLG3_1, Q92796
DLG3_2, Q92796 = biological target: T2, DLG3_2, Q92796
DLG4_1, P78352 = biological target: DLG4_1, P78352
DLG4_1, P78352, sequence (P78352 62-152): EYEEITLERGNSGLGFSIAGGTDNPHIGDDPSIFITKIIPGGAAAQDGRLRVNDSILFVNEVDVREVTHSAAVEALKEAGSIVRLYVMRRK

FRMPD2_1, Q68DX3 = biological target: FRMPD2_1, Q68DX3
FRMPD2_1, Q68DX3, sequence (Q68DX3 770-861): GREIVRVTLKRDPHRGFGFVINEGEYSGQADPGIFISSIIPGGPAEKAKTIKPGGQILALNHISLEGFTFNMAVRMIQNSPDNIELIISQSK

FRMPD2_2, Q68DX3 = biological target: FRMPD2_2, Q68DX3
FRMPD2_2, Q68DX3, sequence (Q68DX3 944-1038): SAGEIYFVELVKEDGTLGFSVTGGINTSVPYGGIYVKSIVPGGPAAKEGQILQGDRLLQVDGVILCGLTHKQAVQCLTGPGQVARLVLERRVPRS

FRMPD2_3, Q68DX3 = biological target: FRMPD2_3, Q68DX3
FRMPD2_3, Q68DX3, sequence (Q68DX3 1073-1166): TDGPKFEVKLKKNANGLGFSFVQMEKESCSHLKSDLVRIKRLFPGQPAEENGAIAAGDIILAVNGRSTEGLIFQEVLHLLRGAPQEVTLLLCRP

GORASP1, Q9BQQ3 = biological target: GORASP1, Q9BQQ3
GORASP1, Q9BQQ3, sequence (Q9BQQ3 1-208): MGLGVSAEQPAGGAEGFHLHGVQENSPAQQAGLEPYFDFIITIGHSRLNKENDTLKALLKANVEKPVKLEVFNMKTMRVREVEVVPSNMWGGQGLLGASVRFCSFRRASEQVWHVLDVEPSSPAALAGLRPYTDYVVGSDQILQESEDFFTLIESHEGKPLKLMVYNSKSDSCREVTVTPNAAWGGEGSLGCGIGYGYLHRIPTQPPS

GORASP2, Q9H8Y8 = biological target: GORASP2, Q9H8Y8
GRID2IP_1, A4D2P6 = biological target: GRID2IP_1, A4D2P6
GRID2IP_1, A4D2P6, sequence (A4D2P6 1-87): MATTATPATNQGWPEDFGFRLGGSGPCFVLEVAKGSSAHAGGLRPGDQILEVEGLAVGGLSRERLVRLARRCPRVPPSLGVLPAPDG

GRIP1_7, Q9Y3R0 = biological target: T3, GRIP1_7, Q9Y3R0
HTRA3, P83110 = biological target: T4, HTRA3, P83110
Inadl_5, Q8NI35 = biological target: Inadl_5, Q8NI35
Inadl_5, Q8NI35, sequence (Q8NI35 673-780): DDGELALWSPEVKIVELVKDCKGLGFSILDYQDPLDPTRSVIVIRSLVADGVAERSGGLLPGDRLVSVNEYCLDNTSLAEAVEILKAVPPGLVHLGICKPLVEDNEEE

Inadl_8, Q8NI35 = biological target: Inadl_8, Q8NI35
Inadl_8, Q8NI35, sequence (Q8NI35 1425-1530): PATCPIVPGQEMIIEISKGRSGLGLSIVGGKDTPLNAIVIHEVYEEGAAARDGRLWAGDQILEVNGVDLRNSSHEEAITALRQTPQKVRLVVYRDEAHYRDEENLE

LAP2, Q96RT1 = biological target: LAP2, Q96RT1
LAP2, Q96RT1, sequence (Q96RT1 other isoform, or with tags, fused parts or gaps): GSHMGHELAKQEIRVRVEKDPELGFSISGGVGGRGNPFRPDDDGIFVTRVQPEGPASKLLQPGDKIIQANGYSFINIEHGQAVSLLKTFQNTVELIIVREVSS

LIN7A, O14910 = biological target: T5, LIN7A, O14910
MAGI1_1, Q96QZ7 = biological target: MAGI1_1, Q96QZ7
MAGI1_1, Q96QZ7, sequence (Q96QZ7 1-106): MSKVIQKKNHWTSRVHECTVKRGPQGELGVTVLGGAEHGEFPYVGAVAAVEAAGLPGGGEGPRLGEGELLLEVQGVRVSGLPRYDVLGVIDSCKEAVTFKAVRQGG

MAGI2_6, Q86UL8 = biological target: MAGI2_6, Q86UL8
MAGI2_6, Q86UL8, sequence (Q86UL8 1141-1229): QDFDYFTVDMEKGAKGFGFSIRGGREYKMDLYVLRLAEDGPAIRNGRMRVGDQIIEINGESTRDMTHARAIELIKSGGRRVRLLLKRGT

MAGI3_2, Q5TCQ9 = biological target: MAGI3_2, Q5TCQ9
MAGI3_2, Q5TCQ9, sequence (Q5TCQ9 398-503): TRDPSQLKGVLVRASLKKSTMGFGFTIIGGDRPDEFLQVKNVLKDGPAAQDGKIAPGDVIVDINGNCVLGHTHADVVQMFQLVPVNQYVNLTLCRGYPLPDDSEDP

MPDZ_5, O75970 = biological target: T6, MPDZ_5, O75970
NHERF3_3, Q5T2W1 = biological target: T7, NHERF3_3, Q5T2W1
NHERF3_4, Q5T2W1 = biological target: T8, NHERF3_4, Q5T2W1
PDZD2_2, O15018 = biological target: T9, PDZD2_2, O15018
RHPN1, Q8TCX5 = biological target: T10, RHPN1, Q8TCX5
SCRIB_2, Q14160 = biological target: SCRIB_2, Q14160
SCRIB_2, Q14160, sequence (Q14160 857-960): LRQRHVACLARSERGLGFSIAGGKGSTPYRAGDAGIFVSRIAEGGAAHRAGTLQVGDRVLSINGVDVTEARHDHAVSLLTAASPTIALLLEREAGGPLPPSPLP

SNTB1, Q13884 = biological target: T11, SNTB1, Q13884
TJP1_2, Q07157 = biological target: TJP1_2, Q07157
TJP1_2, Q07157, sequence (Q07157 181-274): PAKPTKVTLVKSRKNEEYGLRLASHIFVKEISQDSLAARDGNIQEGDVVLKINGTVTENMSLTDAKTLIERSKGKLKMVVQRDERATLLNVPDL

Binder	pKd (CASK, O14936)	pKd (DLG3_1, Q92796)	pKd (DLG3_2, Q92796)	pKd (DLG4_1, P78352)	pKd (FRMPD2_1, Q68DX3)	pKd (FRMPD2_2, Q68DX3)	pKd (FRMPD2_3, Q68DX3)	pKd (GORASP1, Q9BQQ3)	pKd (GORASP2, Q9H8Y8)	pKd (GRID2IP_1, A4D2P6)	pKd (GRIP1_7, Q9Y3R0)	pKd (HTRA3, P83110)	pKd (Inadl_5, Q8NI35)	pKd (Inadl_8, Q8NI35)	pKd (LAP2, Q96RT1)	pKd (LIN7A, O14910)	pKd (MAGI1_1, Q96QZ7)	pKd (MAGI2_6, Q86UL8)	pKd (MAGI3_2, Q5TCQ9)	pKd (MPDZ_5, O75970)	further results
B1	below the threshold	below the threshold	below the threshold	below the threshold	below the threshold	below the threshold	below the threshold	below the threshold	3.57	below the threshold	below the threshold	4.17	3.49	4.13	below the threshold	below the threshold	below the threshold	3.52	below the threshold	below the threshold	pKd (NHERF3_3, Q5T2W1): below the threshold; pKd (NHERF3_4, Q5T2W1): below the threshold; pKd (PDZD2_2, O15018): 4.95; pKd (RHPN1, Q8TCX5): below the threshold; pKd (SCRIB_2, Q14160): below the threshold; pKd (SNTB1, Q13884): below the threshold; pKd (TJP1_2, Q07157): 3.6
B2	below the threshold	below the threshold	4.06	below the threshold	below the threshold	below the threshold	below the threshold	below the threshold	4.21	below the threshold	below the threshold	4.37	below the threshold	below the threshold	below the threshold	below the threshold	below the threshold	below the threshold	below the threshold	below the threshold	pKd (NHERF3_3, Q5T2W1): below the threshold; pKd (NHERF3_4, Q5T2W1): below the threshold; pKd (PDZD2_2, O15018): 4.37; pKd (RHPN1, Q8TCX5): below the threshold; pKd (SCRIB_2, Q14160): below the threshold; pKd (SNTB1, Q13884): below the threshold; pKd (TJP1_2, Q07157): 5.12
B3	below the threshold	4.03	4.59	4.48	3.86	3.54	below the threshold	below the threshold	below the threshold	below the threshold	below the threshold	below the threshold	3.83	3.82	3.52	below the threshold	below the threshold	4.46	4.52	3.66	pKd (NHERF3_3, Q5T2W1): below the threshold; pKd (NHERF3_4, Q5T2W1): below the threshold; pKd (PDZD2_2, O15018): 4.93; pKd (RHPN1, Q8TCX5): 3.95; pKd (SCRIB_2, Q14160): 4.16; pKd (SNTB1, Q13884): 3.97; pKd (TJP1_2, Q07157): below the threshold
B4	below the threshold	3.61	4.2	4.07	below the threshold	4	below the threshold	4.07	4.11	below the threshold	below the threshold	below the threshold	below the threshold	4.2	4.02	3.58	below the threshold	4.09	4.27	below the threshold	pKd (NHERF3_3, Q5T2W1): 3.87; pKd (NHERF3_4, Q5T2W1): below the threshold; pKd (PDZD2_2, O15018): 4.18; pKd (RHPN1, Q8TCX5): 4.35; pKd (SCRIB_2, Q14160): 4.12; pKd (SNTB1, Q13884): 4.37; pKd (TJP1_2, Q07157): below the threshold
